Experimental data from paper PMC11602157, “ZNF512B binds RBBP4 via a variant NuRD interaction motif and aggregates chromatin in a NuRD complex-independent manner” (Nucleic Acids Research, 2024).

Legend:
[1] = test system: DNA (sequence derived from the mouse H19 promoter); assay: EMSA; format: binding; settings: purified recombinant protein, unmethylated or methylated oligos, 300 ng salmon sperm DNA competitor
Protocol: Expression and purification of recombinant His-ZNF512B protein was done as described ([32]). Briefly, pFastBac1 vectors were transformed into DH10Bac bacteria and viruses were generated according to the Bac-to-Bac™ Baculovirus Expression System Protocol (Invitrogen). Extracts were prepared 3 days after infection by washing the cells twice with ice cold PBS and incubation on ice for 10 min in hypotonic buffer (10 mM HEPES-KOH pH 7.9, 1.5 mM MgCl2, 10 mM KCl). After brief vortexing and centrifugation, the pellet (nuclei) was incubated for 20 min in hypertonic buffer (20 mM HEPES-KOH pH 7.9, 25% glycerol, 420 mM NaCl, 1.5 mM MgCl2, 0.2 mM EDTA). After centrifugation for 10 min at 16 000 × g the supernatant was stored at −20°C or directly used for electrophoretic mobility shift assays (EMSAs). Alternatively, the supernatant was purified by FPLC using the Äkta Start (Cytiva) via a His-Trap column (71502768) by standard procedures outlined in the instructions of the manufacturer.
EMSAs were performed as originally described ([34]) with the exception that 300 ng of salmon sperm DNA per reaction were used as an unspecific competitor. […]

[2] = test system: 4xUAS-tk-luc reporter in HEK293T cells; assay: Luciferase reporter assay; format: cell-based; settings: GAL fusion, 72 h, three biological replicates
Protocol: Per well of a 6-well plate, 1.5 × 10^5 HEK293T cells were seeded and transfected on the next day using 1 μg of 4xUAS-tk-luc reporter plasmid, 0.5 μg GAL expression vector and 0.5 μg pCMV-lacZ vector for normalization. Cells were directly lysed in well after 72 h with 200 μl Lysis buffer (25 mM Tris/Cl pH 7.5, 8 mM MgCl2, 1 mM EDTA, 1% Triton™ X-100, 15% glycerin, 1 mM DTT) for 15 min at RT. Supernatants were used to measure luciferase activity by mixing 100 μl 1:1 with 90 mg/L D-Luciferin/0.8 mM ATP and quantifying emitted light after 5 s incubation with an Orion L plate reader (Titertek-Berthold). Values were normalized to β-galactosidase activity by adding 5 μL supernatant to 900 μl LacZ buffer (50 mM Na2HPO4, 10 mM KCl, 0.1 mM MgSO4, pH 7) and 100 μl 4 g/L OPNG/0.1 M KPO4. When a color change of the mixture occurred, absorbance at 420 nm was measured.

Molecule | DNA binding [1] | repression of luciferase reporter [2]
His-ZNF512B: purified recombinant His-ZNF512B protein (protein, UniProt Q96KM6 1-892, looked up, His tag, purified recombinant His-ZNF512B protein) Zinc finger protein 512B: MTDPFCVGGRRLPGSSKSGPGKDGSRKEVRLPMLHDPPKMGMPVVRGGQTVPGQAPLCFDPGSPASDKTEGKKKGRPKAENQALRDIPLSLMNDWKDEFKAHSRVKCPNSGCWLEFPSIYGLKYHYQRCQGGAISDRLAFPCPFCEAAFTSKTQLEKHRIWNHMDRPLPASKPGPISRPVTISRPVGVSKPIGVSKPVTIGKPVGVSKPIGISKPVSVGRPMPVTKAIPVTRPVPVTKPVTVSRPMPVTKAMPVTKPITVTKSVPVTKPVPVTKPITVTKLVTVTKPVPVTKPVTVSRPIVVSKPVTVSRPIAISRHTPPCKMVLLTRSENKAPRATGRNSGKKRAADSLDTCPIPPKQARPENGEYGPSSMGQSSAFQLSADTSSGSLSPGSRPSGGMEALKAAGPASPPEEDPERTKHRRKQKTPKKFTGEQPSISGTFGLKGLVKAEDKARVHRSKKQEGPGPEDARKKVPAAPITVSKEAPAPVAHPAPGGPEEQWQRAIHERGEAVCPTCNVVTRKTLVGLKKHMEVCQKLQDALKCQHCRKQFKSKAGLNYHTMAEHSAKPSDAEASEGGEQEERERLRKVLKQMGRLRCPQEGCGAAFSSLMGYQYHQRRCGKPPCEVDSPSFPCTHCGKTYRSKAGHDYHVRSEHTAPPPEEPTDKSPEAEDPLGVERTPSGRVRRTSAQVAVFHLQEIAEDELARDWTKRRMKDDLVPETARLNYTRPGLPTLNPQLLEAWKNEVKEKGHVNCPNDCCEAIYSSVSGLKAHLASCSKGAHLAGKYRCLLCPKEFSSESGVKYHILKTHAENWFRTSADPPPKHRSQDSLVPKKEKKKNLAGGKKRGRKPKERTPEEPVAKLPPRRDDWPPGCRDKGARGSTGRKVGVSKAPEK | DNA-binding protein (Figure 2F), independent of DNA methylation status | –
K423A: GAL-ZNF512B with K423A mutation, loss of NuRD binding (protein, left off: GFP, end not stated, kept) MTDPFCVGGRRLPGSSKSGPGKDGSRKEVRLPMLHDPPKMGMPVVRGGQTVPGQAPLCFDPGSPASDKTEGKKKGRPKAENQALRDIPLSLMNDWKDEFKAHSRVKCPNSGCWLEFPSIYGLKYHYQRCQGGAISDRLAFPCPFCEAAFTSKTQLEKHRIWNHMDRPLPASKPGPISRPVTISRPVGVSKPIGVSKPVTIGKPVGVSKPIGISKPVSVGRPMPVTKAIPVTRPVPVTKPVTVSRPMPVTKAMPVTKPITVTKSVPVTKPVPVTKPITVTKLVTVTKPVPVTKPVTVSRPIVVSKPVTVSRPIAISRHTPPCKMVLLTRSENKAPRATGRNSGKKRAADSLDTCPIPPKQARPENGEYGPSSMGQSSAFQLSADTSSGSLSPGSRPSGGMEALKAAGPASPPEEDPERTKHRRAQKTPKKFTGEQPSISGTFGLKGLVKAEDKARVHRSKKQEGPGPEDARKKVPAAPITVSKEAPAPVAHPAPGGPEEQWQRAIHERGEAVCPTCNVVTRKTLVGLKKHMEVCQKLQDALKCQHCRKQFKSKAGLNYHTMAEHSAKPSDAEASEGGEQEERERLRKVLKQMGRLRCPQEGCGAAFSSLMGYQYHQRRCGKPPCEVDSPSFPCTHCGKTYRSKAGHDYHVRSEHTAPPPEEPTDKSPEAEDPLGVERTPSGRVRRTSAQVAVFHLQEIAEDELARDWTKRRMKDDLVPETARLNYTRPGLPTLNPQLLEAWKNEVKEKGHVNCPNDCCEAIYSSVSGLKAHLASCSKGAHLAGKYRCLLCPKEFSSESGVKYHILKTHAENWFRTSADPPPKHRSQDSLVPKKEKKKNLAGGKKRGRKPKERTPEEPVAKLPPRRDDWPPGCRDKGARGSTGRKVGVSKAPEK | – | over 50%
